Laboratory results as given in publication PMC12440816.

Assays:
[1] = biological target: MCM replicative helicase hexamer (Mcm2–7), loaded on DNA (Saccharomyces cerevisiae) (UniProt P29469)
[2] = biological target: MCM replicative helicase hexamer (Mcm2–7), loaded on DNA (Saccharomyces cerevisiae) (UniProt P29469); remark: listed apart in the source
[3] = biological target: Luc-MCM/Cdt1 (luciferase-tagged MCM in complex with Cdt1) [Saccharomyces cerevisiae]; assay: MCM recruitment assay (DNA pulldown, luciferase-tagged MCM) in ATPγS; settings: ARS1 origin, read off a plot

Substance | high-salt-resistant luciferase-tagged MCM on the 300 bp[lacO] template at 30 min, with IPTG against without IPTG (SHs loaded by Orc2∆N behind a LacI roadblock) [1] | high-salt-resistant luciferase-tagged MCM on the 300 bp[lacO] template, with IPTG against without IPTG, after free MCM–Cdt1 and Cdc6 were washed off [2] | response ([3]; + CDK (Orc2 phosphorylated)) | response ([3]; - CDK (ORC not phosphorylated))
MCM replicative helicase hexamer (Mcm2–7), loaded on DNA, P29469 1-868; P24279 1-971; P30665 1-933; P29496 1-775; P53091 1-1017; P38132 1-845 | 3.8 fold | 3.3 fold | – | –
origin recognition complex (ORC), wild type mutant Orc6:S106A; Orc6:S116A; Orc6:S123A; Orc6:T146A [Saccharomyces cerevisiae] / Luc-MCM/Cdt1 (luciferase-tagged MCM in complex with Cdt1) [Saccharomyces cerevisiae] chain 6 S106A, chain 6 S116A, chain 6 S123A, chain 6 T146A | – | – | 230 fmol | 250 fmol
